Experimental data as given in FireProtDB.

B1: Ribonuclease HI, P0A7Y4 (parent)
chain: MLKQVEIFTDGSCLGNPGPGGYGAILRYRGREKTFSAGYTRTTNNRMELMAAIVALEALKEHCEVILSTDSQYVRQGITQWIHNWKKRGWKTADKKPVKNVDLWQRLDAALGQHQIKWEWVKGHAGHPENERCDELARAAAMNPTLEDTGYQVEV
B2: Guanyl-specific ribonuclease Sa, P05798 (parent)
chain: DVSGTVCLSALPPEATDTLNLIASDGPFPYSQDGVVFQNRESVLPTQSYGYYHEYTVITPGARTRGTRRIITGEATQEDYYTGDHYATFSLIDQTC
B3: Beta-crystallin B2, P02522 (parent)
chain: MASDHQTQAGKPQPLNPKIIIFEQENFQGHSHELNGPCPNLKETGVEKAGSVLVQAGPWVGYEQANCKGEQFVFEKGEYPRWDSWTSSRRTDSLSSLRPIKVDSQEHKITLYENPNFTGKKMEVIDDDVPSFHAHGYQEKVSSVRVQSGTWVGYQYPGYRGLQYLLEKGDYKDSGDFGAPQPQVQSVRRIRDMQWHQRGAFHPSS
B4: 3-isopropylmalate dehydrogenase, P05645 (parent)
chain: MKKRIALLPGDGIGPEVLESATDVLKSVAERFNHEFEFEYGLIGGAAIDEHHNPLPEETVAACKNADAILLGAVGGPKWDQNPSELRPEKGLLSIRKQLDLFANLRPVKVFESLSDASPLKKEYIDNVDFVIVRELTGGLYFGQPSKRYVNTEGEQEAVDTLFYKRTEIERVIREGFKMAAARKGKVTSVDKANVLESSRLWREVAEDVAQEFPDVKLEHMLVDNAAMQLIYAPNQFDVVVTENMFGDILSDEASMLTGSLGMLPSASLSSSGLHLFEPVHGSAPDIAGKGMANPFAAILSAAMLLRTSFGLEEEAKAVEDAVNKVLASGKRTRDLARSEEFSSTQAITEEVKAAIMSENTISNV
B5: Barstar, P11540 (parent)
chain: MKKAVINGEQIRSISDLHQTLKKELALPEYYGENLDALWDCLTGWVEYPLVLEWRQFEQSKQLTENGAESVLQVFREAKAEGCDITIILS
B6: Alpha-amylase, P29957 (parent)
chain: MKLNKIITTAGLSLGLLLPSIATATPTTFVHLFEWNWQDVAQECEQYLGPKGYAAVQVSPPNEHITGSQWWTRYQPVSYELQSRGGNRAQFIDMVNRCSAAGVDIYVDTLINHMAAGSGTGTAGNSFGNKSFPIYSPQDFHESCTINNSDYGNDRYRVQNCELVGLADLDTASNYVQNTIAAYINDLQAIGVKGFRFDASKHVAASDIQSLMAKVNGSPVVFQEVIDQGGEAVGASEYLSTGLVTEFKYSTELGNTFRNGSLAWLSNFGEGWGFMPSSSAVVFVDNHDNQRGHGGAGNVITFEDGRLYDLANVFMLAYPYGYPKVMSSYDFHGDTDAGGPNVPVHNNGNLECFASNWKCEHRWSYIAGGVDFRNNTADNWAVTNWWDNTNNQISFGRGSSGHMAINKEDSTLTATVQTDMASGQYCNVLKGELSADAKSCSGEVITVNSDGTINLNIGAWDAMAIHKNAKLNTSSASSTESDWQRTVIFINAQTQSGQDMFIRGGIDHAYANANLGRNCQTSNFECAMPIRHNNLKNVTTSPWKANDNYLDWYGIENGQSSEAEGSATDWTTNVWPAGWGAEKTVNTDGFGVTPLNIWGEHYWMLDVDMDCSKAVNGWFELKAFIKNGQGWETAIAQDNAPYTSTNHMAQCGKINKFEFNNSGVVIRSF

Variants of: B1
Conditions: Escherichia coli (strain K12); pH 3; 49.8 °C; Thermal; CD; glycine-HCl 10 mM; reversible: yes; structure 2RN2; whole UniProt chain shown

| Variant | ddG of mutation (higher = less stable) [kcal/mol] |
| --- | --- |
| K91R D94E K95G | -1.2 |
| K91R K95G | -1.6 |
| Y28F R29H G30A R31H | 0.7 |
| A125T | -0.1 |
| G77A | 0.9 |

Same assay, conditions: Escherichia coli (strain K12); pH 3; Thermal; CD; glycine-HCl 10 mM; reversible: yes; structure 2RN2; whole UniProt chain shown

| Variant | Tm [°C] | change of melting temperature, mutant - wild type (higher = more stable) [°C] | unfolding enthalpy (van 't Hoff) [kcal/mol] |
| --- | --- | --- | --- |
| K91R D94E K95G | 53.8 | 4 | 105 |
| K91R K95G | 55 | 5.2 | 114 |
| Y28F R29H G30A R31H | 47.5 | -2.3 | 92.5 |
| D94E | 49.8 | -1.2 | 95.9 |
| A125T | 50.2 | 0.4 | 96.4 |
| G77A | 46.9 | -2.9 | – |

Same assay, conditions: Escherichia coli (strain K12); pH 5.5; 25 °C; GdnHCl; CD; glycine-HCl 10 mM; reversible: yes; structure 2RN2; whole UniProt chain shown

| Variant | ddG of mutation (higher = less stable) [kcal/mol] | denaturant m value [kcal/mol/M] | denaturant midpoint (higher = more stable) [M] | unfolding free energy [kcal/mol] |
| --- | --- | --- | --- | --- |
| K91R D94E K95G | 0.01 | 4.36 | 2.1 | 9.14 |

Same assay, conditions: Escherichia coli (strain K12); pH 5.5; 52 °C; Thermal; CD; glycine-HCl 10 mM; reversible: yes; structure 2RN2; whole UniProt chain shown

| Variant | ddG of mutation (higher = less stable) [kcal/mol] |
| --- | --- |
| K91R D94E K95G | -1.5 |
| Y28F R29H G30A R31H | 0.9 |
| A125T | 0 |

Same assay, conditions: Escherichia coli (strain K12); pH 5.5; Thermal; CD; glycine-HCl 10 mM; reversible: yes; structure 2RN2; whole UniProt chain shown

| Variant | Tm [°C] | change of melting temperature, mutant - wild type (higher = more stable) [°C] | unfolding enthalpy (van 't Hoff) [kcal/mol] |
| --- | --- | --- | --- |
| K91R D94E K95G | 57.6 | 5.6 | 86.8 |
| K91R K95G | 57.8 | 5.8 | 92 |
| Y28F R29H G30A R31H | 48.8 | -3.2 | 80.5 |
| A125T | 52 | 0 | 88.8 |

Same assay, conditions: Escherichia coli (strain K12); pH 5.5; 25 °C; Urea; CD; sodium acetate 20 mM; KCl 50 mM; structure 2RN2; whole UniProt chain shown

| Variant | ddG of mutation (higher = less stable) [kcal/mol] | denaturant m value [kcal/mol/M] | unfolding free energy [kcal/mol] |
| --- | --- | --- | --- |
| I53L | 1.4 | 2.3 | 8.3 |
| I53F | 3.9 | 2 | 5.8 |
| I53D | 4.1 | 2 | 5.6 |

Same assay, conditions: Escherichia coli (strain K12); pH 3; 50.1 °C; Thermal; CD; glycine-HCl 10 mM; NaCl 0.1 M; reversible: yes; structure 2RN2; whole UniProt chain shown

| Variant | ddG of mutation (higher = less stable) [kcal/mol] |
| --- | --- |
| E119V R41C | -0.09 |
| E119V | -0.09 |
| R41C | -0.12 |

Same assay, conditions: Escherichia coli (strain K12); pH 3; Thermal; CD; glycine-HCl 10 mM; NaCl 0.1 M; reversible: yes; structure 2RN2; whole UniProt chain shown

| Variant | Tm [°C] | change of melting temperature, mutant - wild type (higher = more stable) [°C] | unfolding enthalpy (van 't Hoff) [kcal/mol] |
| --- | --- | --- | --- |
| E119V R41C | 50.4 | 0.3 | 101 |

Same assay, conditions: Escherichia coli (strain K12); pH 5.5; Thermal; CD; Sodium acetate 20 mM; NaCl 0.1 M; reversible: yes; structure 2RN2; whole UniProt chain shown

| Variant | Tm [°C] | change of melting temperature, mutant - wild type (higher = more stable) [°C] | unfolding enthalpy (van 't Hoff) [kcal/mol] |
| --- | --- | --- | --- |
| E119V R41C | 56.9 | 4.2 | 107 |
| E119V | 55.4 | 2.7 | 94.3 |
| R41C | 54.3 | 1.6 | 102 |

Same assay, conditions: Escherichia coli (strain K12); pH 5.5; 49.8 °C; Thermal; CD; Sodium acetate 20 mM; reversible: yes; structure 2RN2; whole UniProt chain shown

| Variant | ddG of mutation (higher = less stable) [kcal/mol] |
| --- | --- |
| D94E | 0.4 |

Same assay, conditions: Escherichia coli (strain K12); pH 5.5; Thermal; CD; Sodium acetate 20 mM; reversible: yes; structure 2RN2; whole UniProt chain shown

| Variant | Tm [°C] | change of melting temperature, mutant - wild type (higher = more stable) [°C] | unfolding enthalpy (van 't Hoff) [kcal/mol] |
| --- | --- | --- | --- |
| D94E | 52 | -1.6 | 92.9 |

Same assay, conditions: Escherichia coli (strain K12); pH 3; Thermal; CD; Gly-HCl buffer 10 mM; NaCl 0.1 M; reversible: yes; structure 2RN2; whole UniProt chain shown

| Variant | change of melting temperature, mutant - wild type (higher = more stable) [°C] | ddG of mutation (higher = less stable) [kcal/mol] |
| --- | --- | --- |
| V74A | -7.6 | 2.2 |
| V74I | 2.4 | -0.7 |
| V74L | 3.7 | -1.1 |

Same assay, conditions: Escherichia coli (strain K12); pH 5.5; Thermal; CD; sodium acetate 20 mM; NaCl 0.1 M; reversible: yes; structure 2RN2; whole UniProt chain shown

| Variant | change of melting temperature, mutant - wild type (higher = more stable) [°C] | ddG of mutation (higher = less stable) [kcal/mol] |
| --- | --- | --- |
| V74A | -12.7 | 3.4 |
| V74I | 2.1 | -0.6 |
| V74L | 3.3 | -0.9 |

Same assay, conditions: Escherichia coli (strain K12); pH 5.5; 52.7 °C; Thermal; CD; Sodium acetate 20 mM; NaCl 0.1 M; reversible: yes; structure 2RN2; whole UniProt chain shown

| Variant | ddG of mutation (higher = less stable) [kcal/mol] |
| --- | --- |
| E119V | -0.74 |
| R41C | -0.44 |

Variants of: B2
Conditions: Kitasatospora aureofaciens; pH 7; 25 °C; Thermal; CD; MOPS 30 mM; structure 1RGG; whole UniProt chain shown

| Variant | ddG of mutation (higher = less stable) [kcal/mol] |
| --- | --- |
| E74K | -1.1 |
| D17K | 1.1 |
| D25H | -0.9 |
| E41K | 1.2 |

Variants of: B3
Conditions: Bos taurus; pH 7.2; Thermal; fluorescence; sodium phospahte 20 mM; NaCl; transition: 2; structure 2BB2; whole UniProt chain shown

| Variant | Tm [°C] | change of melting temperature, mutant - wild type (higher = more stable) [°C] |
| --- | --- | --- |
| W59C | 46.8 | -10 |

Variants of: B4
Conditions: Bacillus subtilis (strain 168); pH 7.6; Thermal; CD; Potassium phosphate 20 mM; reversible: yes; whole UniProt chain shown

| Variant | Tm [°C] |
| --- | --- |
| I95L T308I | 66 |
| I95L M292I T308I | 70 |

Same assay, conditions: Bacillus subtilis (strain 168); pH 7.6; Thermal; CD; potassium phosphate 20 mM; reversible: No; whole UniProt chain shown

| Variant | change of melting temperature, mutant - wild type (higher = more stable) [°C] |
| --- | --- |
| M256V | 2.5 |
| M256I | 0 |
| M256L | 0 |
| M256A | 7 |
| M256F | -12.5 |

Variants of: B5
Conditions: Bacillus amyloliquefaciens; pH 8; 10 °C; Urea; CD; Tris Cl 50 mM; KCl 100 mM; structure 1BTA; whole UniProt chain shown

| Variant | ddG of mutation (higher = less stable) [kcal/mol] | unfolding free energy [kcal/mol] |
| --- | --- | --- |
| L35V | 1.1 | 1.9 |
| L17V | 1.1 | 1.9 |
| I6V | 1 | 2 |
| L52V | 0.6 | 2.4 |

Same assay, conditions: Bacillus amyloliquefaciens; pH 7; Thermal; CD; phosphate 20 mM; structure 1A19; whole UniProt chain shown

| Variant | Tm [°C] |
| --- | --- |
| H18Q | 65 |

Variants of: B6
Conditions: Pseudoalteromonas haloplanktis; pH 7.2; Thermal; DSC; MOPS 30 mM; NaCl 50 mM; reversible: yes; structure 1AQH; whole UniProt chain shown

| Variant | Tm [°C] | change of melting temperature, mutant - wild type (higher = more stable) [°C] | unfolding enthalpy (calorimetric) [kcal/mol] |
| --- | --- | --- | --- |
| Q82C A123C | 40 | -4 | 78 |

Same assay, conditions: Pseudoalteromonas haloplanktis; pH 7.2; Thermal; DSC; Mops 30 mM; NaCl 50 mM; reversible: yes; structure 1AQH; whole UniProt chain shown

| Variant | Tm [°C] | change of melting temperature, mutant - wild type (higher = more stable) [°C] | unfolding enthalpy (calorimetric) [kcal/mol] |
| --- | --- | --- | --- |
| K324R N174D V220F Q188I T256V | 51.8 | 7.8 | 277 |
